Measured values: paper PMC12534507

Assays:
[1] = target: truncated human Derlin-1 (Derlin-1^Δ215-239) (human) (UniProt Q9BUN8); test: cryo-EM structure
[2] = target: wild-type C-terminally Strep-tagged Derlin-1 (human) (UniProt Q9BUN8); test: cross-linking

Substance	stoichiometry N [1]	stoichiometry N [2]
truncated human Derlin-1 (Derlin-1^Δ215-239) (from UniProt Q9BUN8) (natural protein)	6	
wild-type C-terminally Strep-tagged Derlin-1 (from UniProt Q9BUN8 1-251) (natural protein)		2
